This assay has as its target T1, Human LRRC15 Protein, His Tag (Acro Biosystems) (human, UniProt Q8TF66 22-538, limits assumed).
T1 sequence (looked up): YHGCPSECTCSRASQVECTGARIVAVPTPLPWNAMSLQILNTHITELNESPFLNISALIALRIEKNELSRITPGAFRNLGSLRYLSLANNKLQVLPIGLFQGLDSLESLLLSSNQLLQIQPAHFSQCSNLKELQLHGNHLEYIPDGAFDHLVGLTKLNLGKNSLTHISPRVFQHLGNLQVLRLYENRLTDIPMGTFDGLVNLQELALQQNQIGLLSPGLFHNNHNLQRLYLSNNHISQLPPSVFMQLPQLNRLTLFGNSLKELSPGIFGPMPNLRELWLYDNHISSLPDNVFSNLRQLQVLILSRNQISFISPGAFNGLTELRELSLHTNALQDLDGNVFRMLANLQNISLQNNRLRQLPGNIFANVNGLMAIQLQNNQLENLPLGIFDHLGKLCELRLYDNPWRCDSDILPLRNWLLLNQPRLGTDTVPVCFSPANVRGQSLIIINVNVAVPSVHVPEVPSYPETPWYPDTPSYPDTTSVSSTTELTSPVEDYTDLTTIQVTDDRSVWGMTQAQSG
As to the kind of experiment: BLI; dissociation pH 7.4 black, pH 5.4 grey [1/2); D00006 FIG. 1E (1/2]. The source says:
For each individual plot, antigen binding proteins were captured on anti-human Fc biosensors and associated with LRRC15 at pH 7.4. Dissociation was at pH 7.4 (black) or pH 5.4 (grey). Major X-axis ticks=100 seconds, with left dashed vertical line=0 seconds. Major Y-axis ticks=0.5 nm and octet plots are shown MYT5712 and MYT6080-MYT6121.
Multiple LRRC15-binding monoclonal antibodies have been described in the literature and can be used as a template for engineering pH-dependent binding. We selected discovery RabMAb clone 15G7 (rabbit VH SEQ ID NO: 378, rabbit VL SEQ ID NO: 451; humanized VH SEQ ID NO: 382, humanized VL SEQ ID NO: 455) as a LRRC15-binding monoclonal antibody for pH-engineering via histidine scanning. […] To generate pH-dependent sequence variants, individual amino acid residues within the heavy chain CDRs were systematically substituted with a histidine (or alanine if H was already present in a given position; e.g., MYT6099), one at a time (rabbit, MYT6080-6121). Desirable mutations were transferred to a humanized framework (humanized, MYT 8387-8411). After allowing for four days of protein expression, cell culture supernatants were collected, quantified by SDS-PAGE analysis, and the pH dependence of the variant was evaluated using biolayer interferometry (BLI) on an Octet RED 96e instrument. Briefly, cell culture supernatants were diluted based on qualitative expression level of the variant determined by visual examination of SDS-PAGE gels, 5 μL of cell culture supernatant was diluted into 195 μL of 1×PBST, pH 7.4 for high expressors, 25 μL of cell culture supernatant was diluted into 175 μL of 1×PBST, pH 7.4 for medium expressors and 100 μL of cell culture supernatant was diluted into 100 μL of 1×PBST, pH 7.4 for low expressors for loading onto the sensor tips.

The source of these data is US20250352661A1 (MYTHIC THERAPEUTICS, published 2025).

B1: MYT6096 (antibody, V domains shown)
VH: QEQLEESGGDLVKPGASLTLTCTASGLDFRRTNYICWVRQAPGKGLEWIGCIYIAHVVHYYASWAKGRFTFSKTSSTTVTLQMTSLTAADTATYFCARGADGGFVYGMDLWGPGTLVTVSS
VL: DVVMTQTPASVSEPVGGTVTIKCQASQSIGNYLSWYQQKPGQRPKRLIYSASTLPSGVPSRFKGAGSGTEFTLTISDLESADAATYYCQNNYWLAGYGHPFGGGTEVVVK
notes: chimeric rabbit 15G7 variant (rabbit variable domains, human constant regions); also called 15G7 VH D56H
Consider B1, for which the binding result is on record as “binds”.

B2: MYT6097 (antibody, V domains shown)
VH: QEQLEESGGDLVKPGASLTLTCTASGLDFRRTNYICWVRQAPGKGLEWIGCIYIADHVHYYASWAKGRFTFSKTSSTTVTLQMTSLTAADTATYFCARGADGGFVYGMDLWGPGTLVTVSS
VL: DVVMTQTPASVSEPVGGTVTIKCQASQSIGNYLSWYQQKPGQRPKRLIYSASTLPSGVPSRFKGAGSGTEFTLTISDLESADAATYYCQNNYWLAGYGHPFGGGTEVVVK
notes: chimeric rabbit 15G7 variant (rabbit variable domains, human constant regions); also called 15G7 VH V57H
Take B2: the binding result is “binds”.

B3: MYT6103 (antibody, V domains shown)
VH: QEQLEESGGDLVKPGASLTLTCTASGLDFRRTNYICWVRQAPGKGLEWIGCIYIADVVHYYAHWAKGRFTFSKTSSTTVTLQMTSLTAADTATYFCARGADGGFVYGMDLWGPGTLVTVSS
VL: DVVMTQTPASVSEPVGGTVTIKCQASQSIGNYLSWYQQKPGQRPKRLIYSASTLPSGVPSRFKGAGSGTEFTLTISDLESADAATYYCQNNYWLAGYGHPFGGGTEVVVK
notes: chimeric rabbit 15G7 variant (rabbit variable domains, human constant regions); also called 15G7 VH S63H
In the case of B3, the binding result is recorded as “binds”.

B4: MYT6100 (antibody, V domains shown)
VH: QEQLEESGGDLVKPGASLTLTCTASGLDFRRTNYICWVRQAPGKGLEWIGCIYIADVVHHYASWAKGRFTFSKTSSTTVTLQMTSLTAADTATYFCARGADGGFVYGMDLWGPGTLVTVSS
VL: DVVMTQTPASVSEPVGGTVTIKCQASQSIGNYLSWYQQKPGQRPKRLIYSASTLPSGVPSRFKGAGSGTEFTLTISDLESADAATYYCQNNYWLAGYGHPFGGGTEVVVK
notes: chimeric rabbit 15G7 variant (rabbit variable domains, human constant regions); also called 15G7 VH Y60H
As to B4, the binding result is “binds”.

B5: MYT6101 (antibody, V domains shown)
VH: QEQLEESGGDLVKPGASLTLTCTASGLDFRRTNYICWVRQAPGKGLEWIGCIYIADVVHYHASWAKGRFTFSKTSSTTVTLQMTSLTAADTATYFCARGADGGFVYGMDLWGPGTLVTVSS
VL: DVVMTQTPASVSEPVGGTVTIKCQASQSIGNYLSWYQQKPGQRPKRLIYSASTLPSGVPSRFKGAGSGTEFTLTISDLESADAATYYCQNNYWLAGYGHPFGGGTEVVVK
notes: chimeric rabbit 15G7 variant (rabbit variable domains, human constant regions); also called 15G7 VH Y61H
For the molecule B5, the binding result was “binds”.

B6: MYT6099 (antibody, V domains shown)
VH: QEQLEESGGDLVKPGASLTLTCTASGLDFRRTNYICWVRQAPGKGLEWIGCIYIADVVAYYASWAKGRFTFSKTSSTTVTLQMTSLTAADTATYFCARGADGGFVYGMDLWGPGTLVTVSS
VL: DVVMTQTPASVSEPVGGTVTIKCQASQSIGNYLSWYQQKPGQRPKRLIYSASTLPSGVPSRFKGAGSGTEFTLTISDLESADAATYYCQNNYWLAGYGHPFGGGTEVVVK
notes: chimeric rabbit 15G7 variant (rabbit variable domains, human constant regions); also called 15G7 VH H59A
On to B6, for which the binding result is “binds”.

B7: MYT6098 (antibody, V domains shown)
VH: QEQLEESGGDLVKPGASLTLTCTASGLDFRRTNYICWVRQAPGKGLEWIGCIYIADVHHYYASWAKGRFTFSKTSSTTVTLQMTSLTAADTATYFCARGADGGFVYGMDLWGPGTLVTVSS
VL: DVVMTQTPASVSEPVGGTVTIKCQASQSIGNYLSWYQQKPGQRPKRLIYSASTLPSGVPSRFKGAGSGTEFTLTISDLESADAATYYCQNNYWLAGYGHPFGGGTEVVVK
notes: chimeric rabbit 15G7 variant (rabbit variable domains, human constant regions); also called 15G7 VH V58H
Turning to B7, the binding result is on record as “binds”.

B8: MYT6105 (antibody, V domains shown)
VH: QEQLEESGGDLVKPGASLTLTCTASGLDFRRTNYICWVRQAPGKGLEWIGCIYIADVVHYYASWHKGRFTFSKTSSTTVTLQMTSLTAADTATYFCARGADGGFVYGMDLWGPGTLVTVSS
VL: DVVMTQTPASVSEPVGGTVTIKCQASQSIGNYLSWYQQKPGQRPKRLIYSASTLPSGVPSRFKGAGSGTEFTLTISDLESADAATYYCQNNYWLAGYGHPFGGGTEVVVK
notes: chimeric rabbit 15G7 variant (rabbit variable domains, human constant regions); also called 15G7 VH A65H
As for B8, the binding result is given as “binds”.
